Reference: PMC10250227 (Nucleic Acids Research, 2023)
Where two headings read alike, the source gives them in different places.

T1: NEQ395 (Nanoarchaeum equitans, UniProt Q74N22)
T1 sequence (Q74N22 1-393): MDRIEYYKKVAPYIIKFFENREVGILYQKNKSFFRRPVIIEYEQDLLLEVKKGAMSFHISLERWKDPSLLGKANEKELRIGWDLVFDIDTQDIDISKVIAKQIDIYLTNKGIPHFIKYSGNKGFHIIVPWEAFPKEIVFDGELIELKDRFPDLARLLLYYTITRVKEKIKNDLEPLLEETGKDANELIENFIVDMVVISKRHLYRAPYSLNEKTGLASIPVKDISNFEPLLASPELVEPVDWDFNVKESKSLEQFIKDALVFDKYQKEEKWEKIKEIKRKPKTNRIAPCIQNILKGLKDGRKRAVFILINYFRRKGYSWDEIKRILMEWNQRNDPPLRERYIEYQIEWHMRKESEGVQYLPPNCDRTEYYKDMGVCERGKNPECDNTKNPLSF

T2: NEQ395 DNA primase (monomeric PriS-PriL) (Nanoarchaeum equitans, UniProt Q74N22 1-393)
T2 sequence: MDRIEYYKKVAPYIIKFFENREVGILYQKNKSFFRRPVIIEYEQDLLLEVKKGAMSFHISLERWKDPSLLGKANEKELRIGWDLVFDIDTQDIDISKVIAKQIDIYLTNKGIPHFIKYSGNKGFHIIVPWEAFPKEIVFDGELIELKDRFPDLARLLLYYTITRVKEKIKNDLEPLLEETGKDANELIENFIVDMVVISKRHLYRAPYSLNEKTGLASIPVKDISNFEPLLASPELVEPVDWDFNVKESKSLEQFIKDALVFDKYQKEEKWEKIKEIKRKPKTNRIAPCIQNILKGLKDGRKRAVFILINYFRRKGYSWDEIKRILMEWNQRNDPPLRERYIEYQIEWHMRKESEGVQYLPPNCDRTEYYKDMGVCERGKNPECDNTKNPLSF


Tests used:
[1] = biological target: T1, NEQ395; experiment: RP-HPLC primase assay with omission of single rNTPs; format: biochemical; settings: pH 6.5, 70°C
[2] = biological target: T2, NEQ395 DNA primase (monomeric PriS-PriL); experiment: fluorescence anisotropy
[3] = biological target: T2, NEQ395 DNA primase (monomeric PriS-PriL); experiment: fluorescence anisotropy; remark: listed apart in the source
[4] = biological target: T2, NEQ395 DNA primase (monomeric PriS-PriL); experiment: fluorescence anisotropy; remark: listed apart in the source

Row | Molecule | Kd [2] [nM] | Kd [3] [nM] | other results
1 | Nc1ncnc2c1ncn2[C@@H]1O[C@H](COP(=O)(O)OP(=O)(O)OP(=O)(O)O)[C@@H](O)[C@H]1O [ATP] |  |  | RP-HPLC primase assay with omission of single rNTPs ([1]; initiating nucleotide, ssDNA template Fid1-4, Mn2+): using an rNTP mix without ATP (the first cognate base needed for synthesis) did not initiate
2 | Nc1nc2c(ncn2[C@@H]2O[C@H](COP(=O)(O)OP(=O)(O)OP(=O)(O)O)[C@@H](O)[C@H]2O)c(=O)[nH]1 [GTP] |  |  | RP-HPLC primase assay with omission of single rNTPs ([1]; elongating nucleotide, ssDNA template Fid2, Mn2+): In presence of GTP, extension to the full-length primers occurs.
3 | t18_ds (dsDNA) DNA 1: TGTAAAACGACGGCCAGT DNA 2: ACTGGCCGTCGTTTTACA | 650 |  | 
4 | CTGTGCTCA (ssDNA) [t9-ATA (lacks ATA)] |  | 2870 | 
5 | CTATACTCA (ssDNA) [t9] |  | 1060 | Kd [4]: 580 nM
6 | TGTAAAACGACGGCCAGT (ssDNA) [t18] | 510 |  | 
